Measured values: the DeepSol protein solubility set

Experiment: soluble on expression in E. coli; label from the status in PepcDB or PDB records

Sequence	soluble on expression in E. coli
MSLSITRRVRLSVDTCCYEAEIAGILRPQLLKGRMSVREEFDAWAAEGKDRGMEDRHWHTAKHVLARMPVEPGDTVLDLGTGSGYALRALRDTNDAGPCYGLDGSPEMLRNAREYTDDDGIGFLRGDFDALPFATDSIDHVFSMEAFYYASDPPHTLEEIARVLRPGGTANIAVNYYEENVHSHEWQEFIDIEMTRWSADEYREAFREAGLAVAAQDTIPDREVEIPPADTFPTDEFETREAMVERYRELGTLLTVGVATEGHHHHHH	soluble
MSLSIYQASIPTFLRTLGNLSAILKKAAAHAEAKNIDPRIFIDARLAPDMFPLARQVQIASDAAKGAGARLAGLEVPSYADTETTFDELQARIARTVEFLEGIREEQLDGAEERNVTLKVRGQEISFNGRDFLFGFALPNFFFHVTTAYAILRHNGVELGKMDFLGGA	not soluble
MSLSKFVLGGLWPETGSLAYLAPPELAAEKLAVKDINDAGGVLGNKITTVDADTSDADHADQNTSAAQSVLSKNPSFIIGPASSSVVKNTYKSITSQNIPMLSMGATSASFSGLSDYFFRTVAPDTVQGAVMGNLIAQDGVQKLAIAVFNDEYGTGLRDTIVKTASAAGVDIIYGEKDTFDPTETNFSSIATAIKASNPDATLVIAFDQTKPLLKALASAGVNTKKLYFVDGNTSDYSSELDAGLLEGSKGTIPGINPSDDFVKRLESTGVDLKNTTTYGAETYDGIILAALAAQKGGSADGKTIQANMAAVSGSTKGEKCDSYKACVALLKDGKEIQYKGQTSIGAFNDAHDPSSASIGVYKYDADNKPVFDHSQEGSVPKAEGHHHHHH	soluble
MSLSKSTFEIKNGHFYRNGKITPVLSGEMHYARIPHQYWRHRLQMMKGMGLNTVATYVFWNLHEPEPGKWDFTGDKNLAEFIKTAGEEGMMVILRPGPYVCAEWEFGGYPWWLQNVKGMEIRRDNPEFLKYTKAYIDRLYKEVGSLQCTKGGPIVMVQCENEFGSYVAQRKDIPLEEHRAYNAKIKQQLADAGFNVPLFTSDGSWLFEGGATPGALPTANGESDIENLKKVVDQYHDGKGPYMVAEFYPGWLSHWAEPFPQIGASGIARQTEKYLQNDVSFNFYMVHGGTNFGFTSGANYDKKRDIQPDMTSYDYDAPISEAGWVTPKYDSIRNVIKKYVKYTIPEAPAPNPVIEIPSIQLNKVADVLAFAEKQKPVSSDTPLTFEQLNQGYGYVLYTRHFNQPISGTLEIPGLRDYAVVYVDGEQVGVLNRNTKTYSMEIEVPFNATLQILVENMGRINYGSEIVHNTKGIISPVQIAGKEIVGGWDMYQLPMDEMPDLTKLKADTHKNVPSEVAKLKGCPVLYEGTFTLDKVGDTFMDMESWGKGIVFVNGVNIGRYWKVGPQQTLYVPGVWLKKGENKIVIFEQLNETPQTEVKTVKTPVLMKLKGEGHHHHHH	soluble
MSLSLEYKGTFGSINAGYADWNSGFVNTHRGEVWKVTADFGVNFKEAEFYSFYESNVLNHAVAGRNHTVSAMTHVRLFDSDMTFFGKIYGQWDNSWGDDLDMFYGFGYLGWNGEWGFFKPYIGLHNQSGDYVSAKYGQTNGWNGYVVGWTAVLPFTLFDEKFVLSNWNEIELDRNDAYTEQQFGRNGLNGGLTIAWKFYPRWKASVTWRYFDNKLGYDGFGDQMIYMLGYDFEGHHHHHH	not soluble
MSLSLKLPKADRSIETYRLAASRTFPARLEGPLNRIAFSAVHTVADPFADNDPWLSVAVDWDKTIAFREHVWDLGLGVAEAMDTAQRGMGLDWPTSLELITRSVAAAKRRNALVFSGAGTDHLAVEDARTVDDVIRAYEEQISAVEKVGGRIILMASRALAKLGRNADDYAKVYDRVLSQVREPVIIHWLGDMFDPALTGYWGTKDLDKAMDVAVAVINANAAKVDGVKVSLLDKQREIDMRRRLDKRIRMYTGDDFNYAELIAGDSQGFSHALLGIFDAIAPAASYALSRLAAGDEAGFHDVLGPTVPLSRHIFKAPTRFYKTGVVFMAYLNGHQDHFTMVGGQESARSMLHLAELFRLADQAGLLANPELATRRMTTVLASHGIESEGHHHHHH	soluble
MSLSLLEVCADLCGQQTLSLFQSSPSVQQVSQTRDLQDIIGQQQGKRALEIAAAGNHNLLFLGPPGTGKTMLASRLCDLLPEMSDEEAMETASIASLTQQEINQHNWKLRPFRAPHHSSSMAALVGGGTIPRPGEISLAHNGLLFLDEMPEFERKVLDSLREPLESGEIVISRAQGKTRFPARFQLVGALNPSPTGYYEGSQARANPQSILRYLSRLSGPLLDRFDMSIEIPALPKGTLANGGDRGESTAAVRQRVWVARERMLARSGKVNALLQSREIEQYCPLLKADAEFLESALHRLGLSIRAYHRIIKVARTIADLQGEAQIARPHLAEALGYRAMDRLLKQLSAQNEGHHHHHH	not soluble
MSLSLMLTVETRQAVNPDYAKTLDTEGLRRHFLANDMFRSGEIRLIYTHYDRFVMGGAVPNGAPLTLDKVEETKTPSFLDRREMGIVNIGETGTVSAGDETYTLNRGDVLYLGAGSRAVTFDGAGRFYITSCPAHRSLPAKLVSLADSKEVKLGATETSNKRTINQFIHPLVMESCQLVLGYTMLEDGSVWNTIPSHIHDRRMEAYLYFGMDEKSRVLHLMGEPQETRHLFISNEEGAISPPWSIHSGAGIGSYTFIWAMAGDNVDYTDMDFIQPGDLKEGHHHHHH	soluble
MSLSLVIAAGTILGACGNSEKSSGSGEGKNKFSVAMVTDVGGVDDKSFNQSAWEGIQAFGKENGLKKGKNGYDYLQSKSDADYTTNLNKLARENFDLIYGVGYLMEDSISEIADQRKNTNFAIIDAVVDKDNVASITFKEQEGSFLVGVAAALSSKSGKIGFVGGMESELIKKFEVGFRAGVQAVNPKAVVEVKYAGGFDKADVGKATAESMYKSGVDVIYHSAGATGTGVFTEAKNLKKEDPKRDVWVIGVDKDQYAEGQVEGTDDNVTLTSMVKKVDTVVEDVTKKASDGKFPGGETLTYGLDQDGVGISPSKQNLSDDVIKAVDKWKKKIIDGLEIPATEKELKTFKAEEGGSHHHHHH	soluble
MSLSMSKRLLLFDFDETYFKHNTNEEDLSHLREMEKLLEKLTNNNEVMTAVLTGSTFQSVMDKMDQVNMTFKPLHIFSDLSSKMFTWNNGEYIESETYKKKVFSEPFLFEDIEDILRHISAQYNVEFIPQRAFEGNETHYNFYFHSTGNHSNDRRILEALVRYANDQNYTARFSRSNPLAGDPENAYDIDFTPSNAGKLYATQFLMKKYNIPVKSILGFGDSGNDEAYLSYLEHAYLMSNSRDEALKQKFRLTKYPYYQGITLHVKEFVEGKYDYEGHHHHHH	soluble
MSLSNAVRITALHTRLARIPLPRPLKTSIHEIADVCCLLVSLETDAGVTGEGYGFCFNADRLGAIAQFTQSLAPLVVGRDPHDVEALWTDFLRGCNFYGQSGVSILAYNPIDIACWDIVGKLAGRPLYKLFGAHRERVPVYASAGLWLSSSRDELRDEARQFLAQGFKAMKMRLGSPDWKEDIARVEVVRDAIGEQVTLMADANQGLDLTRALRLGRELARFDLAWFEEPVPTWDDDSAAEIVRRLPMPIASGETEYTRYGIRRMARERAAGVFMPDLQRMGGYTEMLKAVRYLAAHDLPVAPHIFTEHSLHIVAAAGNATWAEHMPWFEPLFHERMEIGADGCIAAPDRPGTGFTFDWQRIDPYLISPRTAGGSEGHHHHHH	soluble
MSLSNERSSEKTLQNLKTQLLEDSSFLSKLREKITPHIDDHDIQKIIRDYLLTNPEIIIEMQLILQDKLEKQSAQNTQKQASIINSLKKQIFQSPYDAVLGNPNGKRVLVDFFDYNCGYCKISYPYIENLIKEYPDLRVIIKDLPILGSDSMAAHIVAYAFRKQFPEKYPQFYKELLTHQSRANEIKAIKIAVSLGADEKKLRNAIKDSSLQNAFKKNIQIASRLNITGTPSYIIGDKLLIGAVSEEILKEAIENMQEGHHHHHH	soluble
MSLSNKDIRVVVGMSGGVDSSVTAHVLKEQGYDVIGIFMKNWDDTDENGVCTATEDYNDVIEVCNQIGIPYYAVNFEKEYWDKVFTYFLDEYKKGRTPNPDVMCNKEIKFKAFLDHAMNLGADYVATGHYARIHRHEDGHVEMLRGVDNNKDQTYFLNQLSQQQLSKVMFPIGDIEKSEVRRIAEEQGLVTAKKKDSTGICFIGEKNFKTFLSQYLPAQPGDMITLDGKKMGKHSGLMYYTIGQRHGLGIGGDGDPWFVVGKNLKDNVLYVEQGFHHDALYSDYLIASDYSFVNPEDNDLDQGFECTAKFRYRQKDTKVFVKRENDHALRVTFAEPVRAITPGQAVVFYQGDVCLGGATIDDVFKNEGQLNYVVEGHHHHHH	soluble
